Data on one substance can be found in article PMC2189283.

Assay [1] deals with CD2 ligand on sheep erythrocytes (T11TS, the sheep homologue of LFA-3) (sheep (endogenous in sheep erythrocytes)).
In assay [2] the target is LFA-3 surface glycoprotein on the human B-lymphoblastoid line JY (human (endogenous in JY)) (UniProt P19256). Description: flow cytometry on cells. In general terms: In flow cytometry, cells or beads pass a laser one at a time.
Chain of UniProt P19256 (P19256 29-250): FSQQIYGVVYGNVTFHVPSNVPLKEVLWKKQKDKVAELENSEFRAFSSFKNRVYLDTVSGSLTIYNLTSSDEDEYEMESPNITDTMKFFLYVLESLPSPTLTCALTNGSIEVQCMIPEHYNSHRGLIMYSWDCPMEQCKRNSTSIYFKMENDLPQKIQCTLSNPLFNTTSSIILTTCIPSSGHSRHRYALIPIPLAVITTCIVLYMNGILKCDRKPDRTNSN

“T11ex2, recombinant soluble CD2 (T11) molecule that corresponds to the two extracellular segment exons (domain or fragment)” gave a half-maximal inhibition of sheep erythrocyte-Jurkat T cell rosettes in assay [1] of 0.63 to 1.25 µM. The substance further showed a percent reduction of specific anti-LFA-3 reactivity at 10 uM T11ex2 in assay [2] of 85%.
